Numbering of substitutions follows the chain as printed. Where two headings read alike, the source gives them in different places.
B1: OKT3 (antibody, V domains shown)
VH: QVQLVQSGGGVVQPGRSLRLSCKASGYTFTRYTMHWVRQAPGKGLEWIGYINPSRGYTNYNQKFKDRFTISRDNSKNTAFLQMDSLRPEDTGVYFCARYYDDHYCLDYWGQGTPVTVSS
VL: DIQMTQSPSSLSASVGDRVTITCSASSSVSYMNWYQQTPGKAPKRWIYDTSKLASGVPSRFSGSGSGTDYTFTISSLQPEDIATYYCQQWSSNPFTFGQGTKLQITR
B2: 11A10 (antibody, V domains shown)
VH: EVQLVESGRGLVQPGGSLRLSCAASGFTFSSYWMSWVRQAPGKGLEWVANIKEDGSEKYYVDSVKGRFTISRDNAKNSLYLQMNSLRAEDTAVYYCARERREGYFDYWGQGTLVTVSS
VL: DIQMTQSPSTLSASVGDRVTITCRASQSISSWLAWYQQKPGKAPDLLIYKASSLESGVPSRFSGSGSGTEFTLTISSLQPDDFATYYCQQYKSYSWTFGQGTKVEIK
B3: 07B09 (antibody, V domains shown)
VH: B2 VH with R9G, S35T, I51M, K52R, E53K, Q82H, R101S, E102T, T115I
VL: DIQMTQSPSTLSASVGDRVTITCRASQRISTWLAWYQQKAGKAPKLLIYKASSLESGVPSRFSGSGSGTEFTLTIRSLEPDDFATYYCQQYISYTWTFGQGTKVEIK
B4: 01B08 B01 (antibody, V domains shown)
VH: QVQLVQSGAEVKKPGASVKVSCKAAGYTFTGYYMHWVRQAPGQGLEWMGWINPYRSGTNFAQKFQDRVTMTRDTSISTAYMELSSLSSDDTAIYYCARGAGTTFYNAFDIWGQGTMVTVSS
VL: DIQMTQSPSAMSASVGDRVTITCRASQGINNYLAWFQQKPGKVPKRLIYAASSLQSGVPSRFSGSGSGTEFTLTISSLQPEDFATYYCLQHNRYPFTFGPGTKVDIK
B5: 08B12 (antibody, V domains shown)
VH: EVQVVESGGGLVKPGGSLRLSCVASGFTFKKYNMNWVRQAPGKGLEWVSSISSSSTYIYYADSVKGRFTISRDNAKNSLNLQMNSLRAEDTAVYYCAGGGYFDYWGQGTLVTVSS
B6: 13D02 (antibody, V domains shown)
VH: B5 VH with V4L, V23A, K30S, K31R, Y32F, A40T, S54R, T56S, N77K, N80Y
VL: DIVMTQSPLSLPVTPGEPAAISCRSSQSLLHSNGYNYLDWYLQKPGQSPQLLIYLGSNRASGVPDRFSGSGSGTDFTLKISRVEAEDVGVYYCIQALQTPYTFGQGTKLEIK
B7: 01F05 C01 (antibody, V domains shown)
VH: QVQLVQSGAEVKKPGASVKVSCKASGYTFTAYYIHWVRQAPGQGLEWMGWINPNSGGTNYAQMFQGRVTMTRDTSISAAYMELSRLSSDDTAVYYCTRGTPRYNWKSYNYGMDVWGQGTTVTVSS
VL: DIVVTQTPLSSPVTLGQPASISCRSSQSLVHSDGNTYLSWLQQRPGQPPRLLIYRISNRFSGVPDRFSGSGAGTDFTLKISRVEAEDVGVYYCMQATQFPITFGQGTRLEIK
B8: 12C08 (antibody, V domains shown)
VH: B2 VH with V2E, R9G, L20F, A23E, A24V, S30R, Y107Q
VL: B3 VL with S14F, R28S, S30G, T31S, A40P, K45D, R76S, E79Q, I92K, T95S
B9: 11B11 (antibody, V domains shown)
VH: B2 VH with R9G, S35T, L81V, V93I
VL: B3 VL with T10I, V19A, Y36F, A40P, R76S, E79Q, I92K, T95S
B10: 13E03 antibody (antibody, V domains shown)
VH: B2 VH with V2I, R9G, A40T, Y60H, F68Y, N84S, E89D, L113V, V116A
VL: DIQMTQSPSTLSASVGDRVTITCRASQSIGRWLAWYQQKPGKAPDLLIYKASSLESGVPSRFSGGGSGTEFTLTISSLQPDDFATYYCQQYKSYSWTFGQGTKVEVK
B11: 13E03 (antibody, V domains shown)
VH: B2 VH with V2I, R9G, A40T, Y60H, F68Y, N84S, E89D, L113V, V116A
VL: B10 VL
B12: 06G07 A04 (antibody, V domains shown)
VH: B2 VH with R9G, Y32F, Y80F, E102T
VL: B10 VL with P8S, R31S, Y36F, D45K, G65S, T85I, V106I
B13: 08G12 (antibody, V domains shown)
VH: B2 VH with R9G, P14S, S31R, Y32F, S35T, A75T
VL: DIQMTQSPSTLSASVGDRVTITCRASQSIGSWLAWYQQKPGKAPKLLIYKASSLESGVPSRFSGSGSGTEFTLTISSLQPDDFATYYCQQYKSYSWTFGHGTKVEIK
B14: 12C08 antibody (antibody, V domains shown)
VH: B2 VH with V2E, R9G, L20F, A23E, A24V, S30R, Y107Q
VL: B10 VL with S14F, R31S, G65S, V106I

Experiments:
Jurkat [1] = target: T1, Jurkat (UniProt P07766 23-207); assay: FACS Jurkat
Jurkat [2] = target: T1, Jurkat; assay: FACS Jurkat; remark: listed apart in the source
[3] = target: T2, human CD3ε on the cell surface (Jurkat cells, Th1 cells) (UniProt P07766 23-207); assay: FACS Jurkat
[4] = target: T2, human CD3ε on the cell surface (Jurkat …); assay: FACS Jurkat; remark: listed apart in the source
CD3ε/δ heterodimer = assay: sensorgram

Binder	EC50 (Jurkat [1]) [nM]	EC50 (Jurkat [2]) [nM]	EC50 [3] [nM]	EC50 [4] [nM]	koff (CD3ε/δ heterodimer) [s⁻¹]
B1	0.55	0.55	–	–	–
B2	–	–	36	36	–
B3	–	–	25	25	–
B4	–	–	23	23	–
B5	–	–	0.68	0.68	–
B6	–	–	0.59	0.59	–
B7	–	–	1.3	1.3	–
B8	–	–	–	–	0.000334
B9	–	–	48	48	–
B10	–	–	35	35	–
B11	–	–	–	–	0.00198
B12	–	–	27	27	–
B13	–	–	20	20	–
B14	–	–	34	34	–

Reference: patent publication US20260146089A1 (published 2026)
